Test results from PMC3103430, “RecA Proteins from Deinococcus geothermalis and Deinococcus murrayi - Cloning, Purification and Biochemical Characterisation” (BMC Molecular Biology, 2011).

Tests used:
purified protein [1] = substrate: Nc1ncnc2c1ncn2[C@@H]1O[C@H](COP(=O)(O)OP(=O)(O)OP(=O)(O)O)[C@@H](O)[C@H]1O; experiment: purified protein; type: biochemical, Deinococcus murrayi; conditions: ssDNA-dependent (80-nt oligonucleotide, 12.16 μM nucleotides), 11.56 mM MgCl2, 20 mM Tris-HCl pH 7.5, 37 °C, Hill fit, n 1.1
purified protein [2] = substrate: Nc1ncnc2c1ncn2[C@H]1C[C@H](O)[C@@H](COP(=O)(O)OP(=O)(O)OP(=O)(O)O)O1; experiment: purified protein; type: biochemical, Deinococcus murrayi; conditions: ssDNA-dependent (80-nt oligonucleotide, 12.16 μM nucleotides), 11.56 mM MgCl2, 20 mM Tris-HCl pH 7.5, 37 °C, Hill fit, n 1.0

B1: DmuRecA (Deinococcus murrayi) (protein)
chain: MSKDNPKDFGTPSDSKERLKAIETAMTQIEKAFGKGSIMRLGAESKLDVQAVSTGSLSLDLALGVGGIPRGRITEIYGPESGGKTTLALSVIAQAQKAGGTCAFIDAEHALDPVYARSLGVNTDELLVSQPDNGEQRLEIMELLVRSGAIDVVVVDSVAALTPRAEIEGEMGDSLPGLQARLMSQALRKLTAILSKTGTAAIFINQVREKIGVMYGNPETTTGGRALKFYASVRLDVRKIGQPVKMGNDAVGNTVKVKTVKNKVAPPFKEVELTLMYGKGFDQLSDLVTLASDMDIIKKAGSFYSYGEDRLGQGKEKAIAYIAERPELEAEIRERVLSAIKEGRAGDVPGVASVPAVAE
notes: heterogeneous oligomers
Km (purified protein [1]): 310 ± 9 µM
kcat (purified protein [1]): 0.13 ± 0.004 s⁻¹
kcat/Km (purified protein [1]): 430 ± 18 M⁻¹ s⁻¹
Km (purified protein [2]): 280 ± 7 µM
kcat (purified protein [2]): 0.14 ± 0.004 s⁻¹
kcat/Km (purified protein [2]): 500 ± 25 M⁻¹ s⁻¹
